In the supplement of paper PMC10126150:
± gives the standard deviation of the averaged measurements.

System: ATP
Assay: switch fluorescence ratio, 500 uM ATP over buffer (Cy3 cluster intensity, sum of 5 cycles each) (fold (ratio)); higher = stronger signal-on switching upon ATP binding; sequences stand for … in TCGTCGGCAGCGTCAGATGTGTATAAGAGACAGTTTTTTTTTTTTTTTTTTTTTTTTT…TC
Conditions: aptamer strand: ATP DNA aptamer (quencher-CACCTGGGGGAGTATTGCGGAGGAAGG + anchor), 100 nM annealed; ATP concentration: 500 uM
Method in brief: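 The quencher-labelled ATP aptamer, at 100 nM, was annealed to Cy3-labelled switching-strand clusters on a modified Illumina MiSeq flow-cell. The clusters were imaged in selection buffer, then after 15 min with 500 uM ATP at 22 °C, and this buffer/ATP cycle ran five times with NaOH stripping and re-annealing between runs. Per-cluster fluorescence ratios, summed target-cycle over summed buffer-cycle Cy3 intensity, were averaged per switch-domain sequence. Clusters outside 100-1000 RFU were excluded.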
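Also: ATP exposure 15 min at 22 °C before imaging.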

TTGTATGTAC
switch fluorescence ratio: 1.22 ± 0.13

TTGTATGTCT
switch fluorescence ratio: 0.991 ± 0.044

TTGTATTAGT
switch fluorescence ratio: 0.9835 ± 0.0093

TTGTATTCGG
switch fluorescence ratio: 1 ± 0.03

TTGTATTTGT
switch fluorescence ratio: 0.999 ± 0.031

TTGTCAGCGT
switch fluorescence ratio: 0.997 ± 0.012

TTGTCCGAGC
switch fluorescence ratio: 1.06 ± 0.023

TTGTCCGTAG
switch fluorescence ratio: 1.0583 ± 0.00024

TTGTCCTTTG
switch fluorescence ratio: 0.993 ± 0.013

TTGTCTGTCC
switch fluorescence ratio: 0.98 ± 0.018

TTGTGAACTT
switch fluorescence ratio: 0.9794 ± 0.0046

TTGTGAATAT
switch fluorescence ratio: 1 ± 0.044

TTGTGAGCAA
switch fluorescence ratio: 1.33 ± 0.11

TTGTGAGGGA
switch fluorescence ratio: 0.9946 ± 0.0034

TTGTGAGTCT
switch fluorescence ratio: 1.01 ± 0.011

TTGTGATCGG
switch fluorescence ratio: 0.978 ± 0.03

TTGTGATTTT
switch fluorescence ratio: 1.02 ± 0.048

TTGTGGAACG
switch fluorescence ratio: 0.989 ± 0.019

TTGTGGAGAA
switch fluorescence ratio: 1.04 ± 0.072

TTGTGGATTA
switch fluorescence ratio: 1 ± 0.027

TTGTGGCCGG
switch fluorescence ratio: 0.978 ± 0.045

TTGTGGCGGA
switch fluorescence ratio: 1.0229 ± 0.00038

TTGTGGCTGG
switch fluorescence ratio: 0.96 ± 0.035

TTGTGGGGTC
switch fluorescence ratio: 1 ± 0.036

TTGTGGGTAT
switch fluorescence ratio: 0.954 ± 0.013

TTGTGGGTTT
switch fluorescence ratio: 1.05 ± 0.2

TTGTGGTAAG
switch fluorescence ratio: 0.992 ± 0.022

TTGTGGTCCT
switch fluorescence ratio: 0.974 ± 0.029

TTGTGGTCGG
switch fluorescence ratio: 0.982 ± 0.036

TTGTGTAAGC
switch fluorescence ratio: 1.01 ± 0.038

TTGTGTAGCT
switch fluorescence ratio: 1.02 ± 0.0057

TTGTGTATTT
switch fluorescence ratio: 1.001 ± 0.0098

TTGTGTCGCT
switch fluorescence ratio: 1.0031 ± 0.0004

TTGTGTGGGA
switch fluorescence ratio: 1.02 ± 0.026

TTGTGTGGGG
switch fluorescence ratio: 1.01 ± 0.034

TTGTGTTTGT
switch fluorescence ratio: 1 ± 0.03

TTGTTAAGGC
switch fluorescence ratio: 1.02 ± 0.037

TTGTTAATCG
switch fluorescence ratio: 0.984 ± 0.011

TTGTTAGTCA
switch fluorescence ratio: 1.0317 ± 4.4e-05

TTGTTAGTTA
switch fluorescence ratio: 1.01 ± 0.015

TTGTTATCGG
switch fluorescence ratio: 1.04 ± 0.04

TTGTTATGCG
switch fluorescence ratio: 0.995 ± 0.012

TTGTTATGGC
switch fluorescence ratio: 0.9795 ± 0.0059

TTGTTATGGT
switch fluorescence ratio: 1 ± 0.025

TTGTTATTTA
switch fluorescence ratio: 0.9903 ± 0.0019

TTGTTCCAAT
switch fluorescence ratio: 0.989 ± 0.012

TTGTTCGGAG
switch fluorescence ratio: 1.0006 ± 0.00036

TTGTTCGGTT
switch fluorescence ratio: 0.998 ± 0.024

TTGTTCTTTT
switch fluorescence ratio: 1.07 ± 0.077

TTGTTGAATT
switch fluorescence ratio: 0.98 ± 0.042

TTGTTGATGC
switch fluorescence ratio: 1.14 ± 0.021

TTGTTGGCCG
switch fluorescence ratio: 0.9637 ± 0.0078

TTGTTTAAAA
switch fluorescence ratio: 1.01 ± 0.049

TTGTTTAAAG
switch fluorescence ratio: 0.9764 ± 0.0021

TTGTTTAACG
switch fluorescence ratio: 0.99757 ± 0.00042

TTGTTTACCC
switch fluorescence ratio: 0.9713 ± 0.0036

TTGTTTATAA
switch fluorescence ratio: 1.02 ± 0.083

TTGTTTATCA
switch fluorescence ratio: 0.9865 ± 0.0096

TTGTTTCGTT
switch fluorescence ratio: 0.9804 ± 0.0073

TTGTTTCTCT
switch fluorescence ratio: 0.959 ± 0.016

TTGTTTGATG
switch fluorescence ratio: 1.01 ± 0.011

TTGTTTGCGA
switch fluorescence ratio: 0.999 ± 0.01

TTGTTTGGAT
switch fluorescence ratio: 1.01 ± 0.05

TTGTTTGGCA
switch fluorescence ratio: 0.991 ± 0.025

TTGTTTGTAG
switch fluorescence ratio: 1.03 ± 0.052

TTGTTTGTTT
switch fluorescence ratio: 0.997 ± 0.035

TTGTTTTCCG
switch fluorescence ratio: 1.02 ± 0.014

TTGTTTTCGC
switch fluorescence ratio: 1.04 ± 0.046

TTGTTTTGAG
switch fluorescence ratio: 0.994 ± 0.013

TTGTTTTGTA
switch fluorescence ratio: 0.992 ± 0.024

TTGTTTTTAT
switch fluorescence ratio: 0.992 ± 0.03

TTTAAAACTT
switch fluorescence ratio: 2.03 ± 1.4

TTTAAAAGCT
switch fluorescence ratio: 1.07 ± 0.038

TTTAAAAGGC
switch fluorescence ratio: 1.01 ± 0.028

TTTAAAAGTC
switch fluorescence ratio: 1.07 ± 0.086

TTTAAAATGT
switch fluorescence ratio: 1.12 ± 0.25

TTTAAAATTA
switch fluorescence ratio: 0.9978 ± 0.0042

TTTAAAATTT
switch fluorescence ratio: 1.01 ± 0.041

TTTAAACGGT
switch fluorescence ratio: 1.03 ± 0.042

TTTAAAGA
switch fluorescence ratio: 0.991 ± 0.01

TTTAAAGCGC
switch fluorescence ratio: 1.02 ± 0.043

TTTAAAGCTT
switch fluorescence ratio: 1.01 ± 0.032

TTTAAATAGC
switch fluorescence ratio: 0.9742 ± 0.00053

TTTAAATTG
switch fluorescence ratio: 1 ± 0.05

TTTAAATTTG
switch fluorescence ratio: 1.018 ± 0.0054

TTTAACAGGT
switch fluorescence ratio: 1.03 ± 0.023

TTTAACATCA
switch fluorescence ratio: 0.984 ± 0.047

TTTAACTAGC
switch fluorescence ratio: 1.034 ± 0.0063

TTTAAGACAC
switch fluorescence ratio: 1.03 ± 0.022

TTTAAGAGCT
switch fluorescence ratio: 0.997 ± 0.015

TTTAAGCACG
switch fluorescence ratio: 1.09 ± 0.041

TTTAAGCGAT
switch fluorescence ratio: 1.03 ± 0.015

TTTAAGCTGG
switch fluorescence ratio: 0.99 ± 0.017

TTTAAGGAGG
switch fluorescence ratio: 1.03 ± 0.071

TTTAAGGGGA
switch fluorescence ratio: 0.996 ± 0.013

TTTAAGGTAG
switch fluorescence ratio: 0.993 ± 0.018

TTTAAGGTAT
switch fluorescence ratio: 0.957 ± 0.023

TTTAAGGTTT
switch fluorescence ratio: 0.998 ± 0.013

TTTAAGTCGT
switch fluorescence ratio: 0.974 ± 0.025

TTTAAGTGGG
switch fluorescence ratio: 1.04 ± 0.14

TTTAAGTTGG
switch fluorescence ratio: 0.983 ± 0.013

TTTAATGAGC
switch fluorescence ratio: 0.995 ± 0.014

TTTAATGCG
switch fluorescence ratio: 1.01 ± 0.025

TTTAATGGGG
switch fluorescence ratio: 1.02 ± 0.035

TTTAATGTGG
switch fluorescence ratio: 0.999 ± 0.03

TTTAATTAT
switch fluorescence ratio: 0.99 ± 0.034

TTTAATTCGC
switch fluorescence ratio: 1.1 ± 0.056

TTTAATTTA
switch fluorescence ratio: 1.01 ± 0.012

TTTACAGATT
switch fluorescence ratio: 0.982 ± 0.023

TTTACAGCAT
switch fluorescence ratio: 1.06 ± 0.14

TTTACAGTC
switch fluorescence ratio: 1.01 ± 0.037

TTTACAGTGG
switch fluorescence ratio: 1.05 ± 0.057

TTTACATTAT
switch fluorescence ratio: 0.981 ± 0.058

TTTACATTGG
switch fluorescence ratio: 1.01 ± 0.044

TTTACCATTT
switch fluorescence ratio: 1.024 ± 0.0018

TTTACGAAAT
switch fluorescence ratio: 1.08 ± 0.12

TTTACGAGGG
switch fluorescence ratio: 0.977 ± 0.015

TTTACGATTA
switch fluorescence ratio: 1.14 ± 0.067

TTTACGGTGC
switch fluorescence ratio: 1.25 ± 0.15

TTTACGTAGG
switch fluorescence ratio: 1 ± 0.024

TTTACGTCCA
switch fluorescence ratio: 1.1 ± 0.047

TTTACGTGGA
switch fluorescence ratio: 1.02 ± 0.028

TTTACTATTG
switch fluorescence ratio: 1.03 ± 0.03

TTTACTCGGC
switch fluorescence ratio: 1.08 ± 0.16

TTTACTGGGG
switch fluorescence ratio: 1.01 ± 0.023

TTTACTTAGC
switch fluorescence ratio: 1.04 ± 0.026

TTTACTTCTA
switch fluorescence ratio: 1.05 ± 0.017

TTTAGAAAGT
switch fluorescence ratio: 1.028 ± 0.0052

TTTAGAACTC
switch fluorescence ratio: 1.19 ± 0.3

TTTAGAAGGT
switch fluorescence ratio: 0.995 ± 0.026

TTTAGAGAGT
switch fluorescence ratio: 1.01 ± 0.018

TTTAGAGGGA
switch fluorescence ratio: 1.02 ± 0.019

TTTAGAGGGT
switch fluorescence ratio: 0.988 ± 0.013

TTTAGATCAG
switch fluorescence ratio: 1.03 ± 0.013

TTTAGATCGG
switch fluorescence ratio: 1.01 ± 0.046

TTTAGATGAG
switch fluorescence ratio: 0.986 ± 0.053

TTTAGATGGA
switch fluorescence ratio: 0.975 ± 0.021

TTTAGATTGG
switch fluorescence ratio: 0.9945 ± 0.0086

TTTAGCAATG
switch fluorescence ratio: 1.64 ± 0.34

TTTAGCAGAG
switch fluorescence ratio: 1.16 ± 0.28

TTTAGCCTTT
switch fluorescence ratio: 1.06 ± 0.11

TTTAGCTGT
switch fluorescence ratio: 1.1 ± 0.17

TTTAGGCCTC
switch fluorescence ratio: 1.01 ± 0.014

TTTAGGCGGC
switch fluorescence ratio: 1.03 ± 0.023

TTTAGGCGGG
switch fluorescence ratio: 1.05 ± 0.044

TTTAGGGA
switch fluorescence ratio: 0.973 ± 0.033

TTTAGGGATG
switch fluorescence ratio: 0.989 ± 0.0088

TTTAGGGGAA
switch fluorescence ratio: 1.02 ± 0.003

TTTAGGTAGA
switch fluorescence ratio: 1.02 ± 0.014

TTTAGGTATT
switch fluorescence ratio: 0.9598 ± 0.0042

TTTAGGTTCG
switch fluorescence ratio: 0.972 ± 0.028

TTTAGGTTGA
switch fluorescence ratio: 0.9957 ± 0.0012

TTTAGTCGTA
switch fluorescence ratio: 1.01 ± 0.021

TTTAGTGAGG
switch fluorescence ratio: 0.974 ± 0.03

TTTAGTTTGC
switch fluorescence ratio: 0.992 ± 0.024

TTTATAAAAC
switch fluorescence ratio: 1.01 ± 0.051

TTTATAACAG
switch fluorescence ratio: 0.982 ± 0.021

TTTATAACGG
switch fluorescence ratio: 0.988 ± 0.038

TTTATAAGGA
switch fluorescence ratio: 0.997 ± 0.037

TTTATAAGGC
switch fluorescence ratio: 0.983 ± 0.061

TTTATAATAG
switch fluorescence ratio: 0.991 ± 0.025

TTTATAATAT
switch fluorescence ratio: 1.03 ± 0.015

TTTATACCGT
switch fluorescence ratio: 1.026 ± 0.0028

TTTATACTGT
switch fluorescence ratio: 1.03 ± 0.024

TTTATAGGTT
switch fluorescence ratio: 1.02 ± 0.069

TTTATATGTA
switch fluorescence ratio: 1.01 ± 0.022

TTTATCAAAA
switch fluorescence ratio: 0.993 ± 0.012

TTTATCATAA
switch fluorescence ratio: 0.958 ± 0.017

TTTATCCGGT
switch fluorescence ratio: 1.01 ± 0.042

TTTATCCGTC
switch fluorescence ratio: 0.96 ± 0.033

TTTATCGGG
switch fluorescence ratio: 1.01 ± 0.044

TTTATCGGGC
switch fluorescence ratio: 0.989 ± 0.019

TTTATCTGCT
switch fluorescence ratio: 0.981 ± 0.037

TTTATCTTTT
switch fluorescence ratio: 1 ± 0.028

TTTATGAACT
switch fluorescence ratio: 1.02 ± 0.042

TTTATGAAGG
switch fluorescence ratio: 1 ± 0.018

TTTATGAGAG
switch fluorescence ratio: 1.08 ± 0.092

TTTATGAGTT
switch fluorescence ratio: 0.988 ± 0.029

TTTATGATGA
switch fluorescence ratio: 0.971 ± 0.016

TTTATGATGG
switch fluorescence ratio: 1.01 ± 0.052

TTTATGATTT
switch fluorescence ratio: 1 ± 0.024

TTTATGCCAG
switch fluorescence ratio: 0.946 ± 0.053

TTTATGCTCC
switch fluorescence ratio: 1.086 ± 0.0031

TTTATGGAAG
switch fluorescence ratio: 0.988 ± 0.013

TTTATGGACT
switch fluorescence ratio: 1.03 ± 0.039

TTTATGGCGG
switch fluorescence ratio: 1.01 ± 0.027

TTTATGGGTA
switch fluorescence ratio: 1 ± 0.033

TTTATGGTAA
switch fluorescence ratio: 0.9888 ± 0.0024

TTTATGGTAT
switch fluorescence ratio: 0.982 ± 0.028

TTTATGGTGT
switch fluorescence ratio: 1.17 ± 0.21

TTTATGGTTG
switch fluorescence ratio: 1.02 ± 0.064

TTTATGTGTG
switch fluorescence ratio: 0.999 ± 0.026

TTTATTAAAA
switch fluorescence ratio: 0.99 ± 0.038

TTTATTAAGT
switch fluorescence ratio: 1.01 ± 0.033

TTTATTACCC
switch fluorescence ratio: 1.02 ± 0.025

TTTATTAGAT
switch fluorescence ratio: 0.982 ± 0.022

TTTATTCTCT
switch fluorescence ratio: 1.01 ± 0.019

TTTATTGA
switch fluorescence ratio: 0.989 ± 0.013

TTTATTGCGT
switch fluorescence ratio: 1.01 ± 0.048

TTTATTGGT
switch fluorescence ratio: 1.01 ± 0.018

TTTATTGGTG
switch fluorescence ratio: 1.03 ± 0.1
